The source of these data is IntAct's records for PubMed 10798620.

The target of assay [1] is gdir_arath GDI1 (UniProt Q9SFC6).
The target is the same in assay [2]. This is another data set of the same source.

Chain of gdir_arath GDI1 (Q9SFC6 whole entry): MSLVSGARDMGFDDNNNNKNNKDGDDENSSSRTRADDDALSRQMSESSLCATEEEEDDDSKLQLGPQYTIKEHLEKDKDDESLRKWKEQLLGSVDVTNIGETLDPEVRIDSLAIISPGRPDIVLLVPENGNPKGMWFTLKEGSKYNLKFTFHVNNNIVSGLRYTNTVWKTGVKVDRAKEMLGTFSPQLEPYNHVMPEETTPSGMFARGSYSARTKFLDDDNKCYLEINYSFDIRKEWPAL
Chain of Rac-like GTP-binding protein ARAC3 (Arabidopsis thaliana (Mouse-ear cress)), Q38912 T20N (Q38912 whole entry T20N): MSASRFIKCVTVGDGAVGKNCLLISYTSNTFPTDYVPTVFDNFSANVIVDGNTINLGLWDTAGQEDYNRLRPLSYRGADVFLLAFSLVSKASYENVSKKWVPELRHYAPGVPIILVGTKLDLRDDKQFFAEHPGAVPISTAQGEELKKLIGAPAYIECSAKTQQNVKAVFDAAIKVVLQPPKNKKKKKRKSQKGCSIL
Chain of Rac-like GTP-binding protein ARAC5 (Arabidopsis thaliana (Mouse-ear cress)), Q38937 T20N (Q38937 whole entry T20N): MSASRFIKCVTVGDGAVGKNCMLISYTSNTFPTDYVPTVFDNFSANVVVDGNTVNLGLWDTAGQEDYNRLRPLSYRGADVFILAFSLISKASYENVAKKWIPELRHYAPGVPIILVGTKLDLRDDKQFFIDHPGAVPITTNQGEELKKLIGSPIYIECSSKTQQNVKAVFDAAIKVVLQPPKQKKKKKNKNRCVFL

On to “Rac-like GTP-binding protein ARAC3 (Arabidopsis thaliana (Mouse-ear cress)), Q38912 T20N”, for which the “effect of a mutation on the interaction” value in assay [1] is given as “disrupting interaction”.

As for “Rac-like GTP-binding protein ARAC5 (Arabidopsis thaliana (Mouse-ear cress)), Q38937 T20N”, the “effect of a mutation on the interaction” value in assay [2] was “disrupting interaction”.
